Data taken from publication doi:10.1101/2022.07.31.502239, “Structural basis for assembly and lipid-mediated gating of LRRC8A:C volume-regulated anion channels” (bioRxiv, 2022).

Molecular target: the molecule itself
Experiment: single molecule pulldown with stepwise photobleaching subunit counting; C-terminal EGFP-HA fusion expressed alone in LRRC8 knockout HEK293 cells, GDN extract used directly, immobilised on passivated coverslips with biotinylated anti-HA, TIRF imaging of EGFP bleaching steps

B1: HVCN1 with C-terminal EGFP and HA-tag (natural protein, UniProt Q96D96 1-273, looked up)
chain: MATWDEKAVTRRAKVAPAERMSKFLRHFTVVGDDYHAWNINYKKWENEEEEEEEEQPPPTPVSGEEGRAAAPDVAPAPGPAPRAPLDFRGMLRKLFSSHRFQVIIICLVVLDALLVLAELILDLKIIQPDKNNYAAMVFHYMSITILVFFMMEIIFKLFVFRLEFFHHKFEILDAVVVVVSFILDIVLLFQEHQFEALGLLILLRLWRVARIINGIIISVKTRSERQLLRLKQMNVQLAAKIQHLEFSCSEKEQEIERLNKLLRQHGLLGEVN
notes: HVCN1 (HV1) voltage-gated proton channel; Control for subunit counting; also called HV1-EGFP; HV1; source: LRRC8 knockout HEK293 cells, transfected, GDN detergent extract of membranes; not shown: EGFP, C-terminal, kept; HA, C-terminal, kept
- stoichiometry N: 2
